Consider 91 variants from IntAct's records for PubMed 29039417.

B1: BBSome complex member BBS2 (Homo sapiens), Q9BXC9 (parent)
chain: MLLPVFTLKLRHKISPRMVAIGRYDGTHPCLAAATQTGKVFIHNPHTRNQHVSASRVFQSPLESDVSLLSINQAVSCLTAGVLNPELGYDALLVGTQTNLLAYDVYNNSDLFYREVADGANAIVLGTLGDISSPLAIIGGNCALQGFNHEGSDLFWTVTGDNVNSLALCDFDGDGKKELLVGSEDFDIRVFKEDEIVAEMTETEIVTSLCPMYGSRFGYALSNGTVGVYDKTSRYWRIKSKNHAMSIHAFDLNSDGVNELITGWSNGKVDARSDRTGEVIFKDNFSSAIAGVVEGDYRMDGHIQLICCSVDGEIRGYLPGTAEMRGNLMDTSAEQDLIRELSQKKQNLLLELRNYEENAKAELASPLNEADGHRGIIPANTRLHTTLSVSLGNETQTAHTELRISTSNDTIIRAVLIFAEGIFTGESHVVHPSIHNLSSSICIPIVPPKDVPVDLHLKAFVGYRSSTQFHVFESTRQLPRFSMYALTSLDPASEPISYVNFTIAERAQRVVVWLGQNFLLPEDTHIQNAPFQVCFTSLRNGGHLHIKIKLSGEITINTDDIDLAGDIIQSMASFFAIEDLQVEADFPVYFEELRKVLVKVDEYHSVHQKLSADMADHSNLIRSLLVGAEDARLMRDMKTMKSRYMELYDLNRDLLNGYKIRCNNHTELLGNLKAVNQAIQRAGRLRVGKPKNQVITACRDAIRSNNINTLFKIMRVGTASS
partner: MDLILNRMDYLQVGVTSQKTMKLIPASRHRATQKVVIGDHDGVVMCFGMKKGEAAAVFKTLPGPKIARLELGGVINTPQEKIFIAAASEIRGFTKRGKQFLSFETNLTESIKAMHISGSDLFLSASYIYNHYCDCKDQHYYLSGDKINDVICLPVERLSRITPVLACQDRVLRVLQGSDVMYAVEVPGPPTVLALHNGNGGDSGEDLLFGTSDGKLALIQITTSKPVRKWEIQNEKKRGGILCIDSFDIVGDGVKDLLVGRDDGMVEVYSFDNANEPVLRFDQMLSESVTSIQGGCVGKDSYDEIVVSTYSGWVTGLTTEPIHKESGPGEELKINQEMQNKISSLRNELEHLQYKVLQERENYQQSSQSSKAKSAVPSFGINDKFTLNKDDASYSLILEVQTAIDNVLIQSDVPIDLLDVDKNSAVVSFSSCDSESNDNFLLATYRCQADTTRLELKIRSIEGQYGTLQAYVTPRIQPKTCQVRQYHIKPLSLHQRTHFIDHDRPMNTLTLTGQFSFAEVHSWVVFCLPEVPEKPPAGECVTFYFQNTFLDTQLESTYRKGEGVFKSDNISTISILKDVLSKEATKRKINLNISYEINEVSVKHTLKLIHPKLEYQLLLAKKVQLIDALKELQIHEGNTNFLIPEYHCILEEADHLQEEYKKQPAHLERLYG

The variants in the first test derive from B1. The conditions noted are these: with BBS7, Q8IWZ6-2.
As to L710E, the “effect of a mutation on the interaction” value is reported as “with no effect”. With L710A, the “effect of a mutation on the interaction” value is listed as “with no effect”.

On to L710K, for which the “effect of a mutation on the interaction” value is listed as “with no effect”.

A719K: the “effect of a mutation on the interaction” value is on record as “with no effect”. A719E: the “effect of a mutation on the interaction” value is “with no effect”. In the case of R703E, the “effect of a mutation on the interaction” value is “with no effect”. Still for that read-out and setting: for R703A the value was “with no effect”; for R703K, “with no effect”.

For the variant T718A, the “effect of a mutation on the interaction” value was “with no effect”. Consider T718E, for which the “effect of a mutation on the interaction” value is on record as “with no effect”. Still for that read-out and setting: the entry for T718K is “with no effect”. For G717A, the “effect of a mutation on the interaction” value was “with no effect”. On the same count and under the same terms, the entry for G717K is “with no effect”; for G717E it is “with no effect”. On the same count and under the same terms, for N705E the value was “with no effect”; for N705K, “with no effect”. As to N705A, the “effect of a mutation on the interaction” value is “with no effect”. Still for that read-out and setting: for T696K the value was “with no effect”; for T696A, “with no effect”; for T696E, “with no effect”. Still for that read-out and setting: for P690A the value was “with no effect”; for P690K, “with no effect”. P690E: the “effect of a mutation on the interaction” value is reported as “with no effect”. The same measure, in the same setting: the entry for S721E is “with no effect”; for S721A it is “with no effect”. S721K: the “effect of a mutation on the interaction” value is “with no effect”. The same measure, in the same setting: the entry for N708E is “with no effect”; for N708K it is “with no effect”; for N708A it is “with no effect”. Still for that read-out and setting: for T709A the value was “with no effect”; for T709K, “with no effect”; for T709E, “with no effect”. For the variant I695A, the “effect of a mutation on the interaction” value is recorded as “with no effect”.

As for I695K, the “effect of a mutation on the interaction” value was “with no effect”.

For I695E, the “effect of a mutation on the interaction” value is “with no effect”.

N692K: the “effect of a mutation on the interaction” value was “with no effect”.

Turning to N692E, the “effect of a mutation on the interaction” value is listed as “with no effect”.

Consider N692A, for which the “effect of a mutation on the interaction” value is listed as “with no effect”. The same measure, in the same setting: for M714A the value was “with no effect”. Still for that read-out and setting: for M714K the value was “with no effect”; for M714E, “with no effect”. On to K689A, for which the “effect of a mutation on the interaction” value is reported as “with no effect”.

For the variant K689E, the “effect of a mutation on the interaction” value is recorded as “with no effect”. On to F711A, for which the “effect of a mutation on the interaction” value was “with no effect”.

Regarding F711K, the “effect of a mutation on the interaction” value is “with no effect”. Take F711E: the “effect of a mutation on the interaction” value is “with no effect”. The same measure, in the same setting: for V716A the value was “with no effect”; for V716E, “with no effect”.

For the variant V716K, the “effect of a mutation on the interaction” value is given as “with no effect”. Same read-out and setting: the entry for R715E is “with no effect”. The same measure, in the same setting: for R715K the value was “with no effect”; for R715A, “with no effect”; for N706A, “with no effect”.

Turning to N706K, the “effect of a mutation on the interaction” value is listed as “with no effect”. On the same count and under the same terms, for N706E the value was “with no effect”; for K712E, “with no effect”; for K712A, “with no effect”. For R699E, the “effect of a mutation on the interaction” value is “with no effect”. Still for that read-out and setting: for R699A the value was “with no effect”. Regarding R699K, the “effect of a mutation on the interaction” value was “with no effect”.

For the variant S720A, the “effect of a mutation on the interaction” value is reported as “with no effect”. Still for that read-out and setting: the entry for S720K is “with no effect”; for S720E it is “with no effect”; for I702K it is “with no effect”. Still for that read-out and setting: for I702E the value was “with no effect”; for I702A, “with no effect”. As to V694A, the “effect of a mutation on the interaction” value is “with no effect”.

As for V694E, the “effect of a mutation on the interaction” value was “with no effect”.

As for V694K, the “effect of a mutation on the interaction” value is listed as “with no effect”. For I707E, the “effect of a mutation on the interaction” value is on record as “with no effect”. The same measure, in the same setting: the entry for I707A is “with no effect”; for I707K it is “with no effect”; for Q693E it is “with no effect”. In the case of Q693K, the “effect of a mutation on the interaction” value is given as “with no effect”.

On to Q693A, for which the “effect of a mutation on the interaction” value is “with no effect”. As for G688K, the “effect of a mutation on the interaction” value is reported as “disrupting interaction strength”. As for G688R, the “effect of a mutation on the interaction” value is “disrupting interaction strength”. Still for that read-out and setting: for A697K the value was “with no effect”; for A697E, “with no effect”; for S704K, “with no effect”. Consider S704E, for which the “effect of a mutation on the interaction” value is “with no effect”. As for S704A, the “effect of a mutation on the interaction” value is recorded as “with no effect”. For the variant D700E, the “effect of a mutation on the interaction” value is listed as “with no effect”.

Consider D700A, for which the “effect of a mutation on the interaction” value was “with no effect”. On the same count and under the same terms, the entry for D700K is “with no effect”; for A701K it is “with no effect”. The same measure, in the same setting: for A701E the value was “with no effect”; for C698K, “with no effect”. In the case of C698A, the “effect of a mutation on the interaction” value is listed as “with no effect”. C698E: the “effect of a mutation on the interaction” value is listed as “with no effect”.

The variants in the next test derive from B1. The following applies: with BBS7, Q8IWZ6-2. The source holds these as a separate data set.
Take S365R: the “effect of a mutation on the interaction” value was “disrupting interaction strength”.
